Tested on: Escherichia coli TOP10
Assay: shrunken log2 fold change of peptide-encoding DNA abundance (4.5 h post-induction vs induction); higher = less antimicrobial activity (less host growth inhibition)
Details: time post-induction: 4.5 h; library: site-saturation at positions 5, 18, 19, 20
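Further: peptides expressed intracellularly from a pBAD plasmid library in pooled LB shake-flask culture, induced with 0.3% L-arabinose, DNA abundance read by NGS, three biological replicates, DESeq2 with apeglm shrinkage.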

Sequence	shrunken log2 fold change
RRIRKRPPRLPRPRPRPCWTPRP	-0.0905
RRIRKRPPRLPRPRPRPCYNPRP	-0.428
RRIRKRPPRLPRPRPRPDCMPRP	-0.0185
RRIRKRPPRLPRPRPRPDDRPRP	0.0147
RRIRKRPPRLPRPRPRPDEAPRP	3.09
RRIRKRPPRLPRPRPRPDFRPRP	0.134
RRIRKRPPRLPRPRPRPDFTPRP	-0.206
RRIRKRPPRLPRPRPRPDKEPRP	-0.2
RRIRKRPPRLPRPRPRPDKQPRP	0.0638
RRIRKRPPRLPRPRPRPDLRPRP	0.103
RRIRKRPPRLPRPRPRPDNPPRP	-0.0237
RRIRKRPPRLPRPRPRPDNVPRP	-0.0064
RRIRKRPPRLPRPRPRPDQAPRP	-0.029
RRIRKRPPRLPRPRPRPDQDPRP	0.0345
RRIRKRPPRLPRPRPRPDQFPRP	-0.0391
RRIRKRPPRLPRPRPRPDQLPRP	0.107
RRIRKRPPRLPRPRPRPDRHPRP	-0.091
RRIRKRPPRLPRPRPRPDRKPRP	0.413
RRIRKRPPRLPRPRPRPDRPPRP	0.0953
RRIRKRPPRLPRPRPRPDRYPRP	-0.0261
RRIRKRPPRLPRPRPRPDVYPRP	-0.0383
RRIRKRPPRLPRPRPRPDWIPRP	-0.0252
RRIRKRPPRLPRPRPRPDYKPRP	-0.208
RRIRKRPPRLPRPRPRPDYPPRP	-0.0226
RRIRKRPPRLPRPRPRPEDMPRP	0.0387

Sequence	shrunken log2 fold change
RRIRKRPPRLPRPRPRPEDVPRP	-0.04
RRIRKRPPRLPRPRPRPEDWPRP	2.01
RRIRKRPPRLPRPRPRPEFNPRP	0.15
RRIRKRPPRLPRPRPRPEGQPRP	0.107
RRIRKRPPRLPRPRPRPEHVPRP	0.0142
RRIRKRPPRLPRPRPRPEIQPRP	-0.0762
RRIRKRPPRLPRPRPRPELNPRP	2.26
RRIRKRPPRLPRPRPRPENQPRP	0.156
RRIRKRPPRLPRPRPRPENRPRP	0.246
RRIRKRPPRLPRPRPRPEPEPRP	1.34
RRIRKRPPRLPRPRPRPEQLPRP	-0.0173
RRIRKRPPRLPRPRPRPERHPRP	0.105
RRIRKRPPRLPRPRPRPESGPRP	0.918
RRIRKRPPRLPRPRPRPESYPRP	0.403
RRIRKRPPRLPRPRPRPETLPRP	0.0437
RRIRKRPPRLPRPRPRPETMPRP	0.0612
RRIRKRPPRLPRPRPRPETSPRP	1.02
RRIRKRPPRLPRPRPRPFAIPRP	-0.00592
RRIRKRPPRLPRPRPRPFASPRP	0.193
RRIRKRPPRLPRPRPRPFCLPRP	-0.0107
RRIRKRPPRLPRPRPRPFEAPRP	2.17
RRIRKRPPRLPRPRPRPFFCPRP	0.232
RRIRKRPPRLPRPRPRPFFEPRP	0.428
RRIRKRPPRLPRPRPRPFFTPRP	0.19
RRIRKRPPRLPRPRPRPFGAPRP	0.45

Sequence	shrunken log2 fold change
RRIRKRPPRLPRPRPRPFGNPRP	-0.171
RRIRKRPPRLPRPRPRPFHCPRP	-0.0128
RRIRKRPPRLPRPRPRPFHWPRP	0.111
RRIRKRPPRLPRPRPRPFKWPRP	0.33
RRIRKRPPRLPRPRPRPFMRPRP	0.24
RRIRKRPPRLPRPRPRPFNTPRP	-0.0902
RRIRKRPPRLPRPRPRPFQYPRP	-0.284
RRIRKRPPRLPRPRPRPFRFPRP	0.125
RRIRKRPPRLPRPRPRPFRIPRP	-0.0356
RRIRKRPPRLPRPRPRPFRRPRP	0.0327
RRIRKRPPRLPRPRPRPFRWPRP	0.0626
RRIRKRPPRLPRPRPRPFTMPRP	-0.23
RRIRKRPPRLPRPRPRPFWEPRP	0.341
RRIRKRPPRLPRPRPRPGCDPRP	0.826
RRIRKRPPRLPRPRPRPGDRPRP	0.886
RRIRKRPPRLPRPRPRPGFEPRP	0.32
RRIRKRPPRLPRPRPRPGFMPRP	0.184
RRIRKRPPRLPRPRPRPGGWPRP	0.62
RRIRKRPPRLPRPRPRPGHDPRP	0.141
RRIRKRPPRLPRPRPRPGHHPRP	0.228
RRIRKRPPRLPRPRPRPGHQPRP	-0.0847
RRIRKRPPRLPRPRPRPGILPRP	0.28
RRIRKRPPRLPRPRPRPGMIPRP	-0.0362
RRIRKRPPRLPRPRPRPGNEPRP	0.204
RRIRKRPPRLPRPRPRPGPKPRP	1.15

Sequence	shrunken log2 fold change
RRIRKRPPRLPRPRPRPGPVPRP	0.531
RRIRKRPPRLPRPRPRPGQFPRP	0.00171
RRIRKRPPRLPRPRPRPGQTPRP	0.611
RRIRKRPPRLPRPRPRPGRGPRP	0.593
RRIRKRPPRLPRPRPRPGRLPRP	0.299
RRIRKRPPRLPRPRPRPGSPPRP	0.166
RRIRKRPPRLPRPRPRPGSRPRP	-0.171
RRIRKRPPRLPRPRPRPGVDPRP	0.824
RRIRKRPPRLPRPRPRPGVRPRP	1.16
RRIRKRPPRLPRPRPRPGWLPRP	0.593
RRIRKRPPRLPRPRPRPGYAPRP	0.223
RRIRKRPPRLPRPRPRPGYDPRP	-0.0159
RRIRKRPPRLPRPRPRPGYQPRP	0.0954
RRIRKRPPRLPRPRPRPHCNPRP	-0.275
RRIRKRPPRLPRPRPRPHCTPRP	-0.24
RRIRKRPPRLPRPRPRPHEMPRP	0.0317
RRIRKRPPRLPRPRPRPHFLPRP	0.12
RRIRKRPPRLPRPRPRPHFQPRP	0.0821
RRIRKRPPRLPRPRPRPHGDPRP	0.0106
RRIRKRPPRLPRPRPRPHGEPRP	0.428
RRIRKRPPRLPRPRPRPHIEPRP	-0.891
RRIRKRPPRLPRPRPRPHKWPRP	-0.0776
RRIRKRPPRLPRPRPRPHLAPRP	0.0615
RRIRKRPPRLPRPRPRPHLCPRP	0.0127
RRIRKRPPRLPRPRPRPHLYPRP	0.0535

Sequence	shrunken log2 fold change
RRIRKRPPRLPRPRPRPHMAPRP	-0.448
RRIRKRPPRLPRPRPRPHNKPRP	-0.0934
RRIRKRPPRLPRPRPRPHNYPRP	-0.0761
RRIRKRPPRLPRPRPRPHQSPRP	0.226
RRIRKRPPRLPRPRPRPHRPPRP	0.172
RRIRKRPPRLPRPRPRPHSEPRP	-0.0169
RRIRKRPPRLPRPRPRPHTNPRP	0.192
RRIRKRPPRLPRPRPRPHTVPRP	-0.407
RRIRKRPPRLPRPRPRPHYIPRP	-0.123
RRIRKRPPRLPRPRPRPIDVPRP	0.191
RRIRKRPPRLPRPRPRPIEAPRP	0.0321
RRIRKRPPRLPRPRPRPIETPRP	0.00938
RRIRKRPPRLPRPRPRPIGGPRP	-0.494
RRIRKRPPRLPRPRPRPIHCPRP	0.0163
RRIRKRPPRLPRPRPRPIIDPRP	-0.139
RRIRKRPPRLPRPRPRPIKGPRP	-0.141
RRIRKRPPRLPRPRPRPILRPRP	-0.0475
RRIRKRPPRLPRPRPRPIMPPRP	0.099
RRIRKRPPRLPRPRPRPINAPRP	0.088
RRIRKRPPRLPRPRPRPINHPRP	-0.408
RRIRKRPPRLPRPRPRPIPYPRP	-0.303
RRIRKRPPRLPRPRPRPIQAPRP	-0.000921
RRIRKRPPRLPRPRPRPIQFPRP	0.0779
RRIRKRPPRLPRPRPRPIQYPRP	-0.193
RRIRKRPPRLPRPRPRPITDPRP	-0.128

Sequence	shrunken log2 fold change
RRIRKRPPRLPRPRPRPITNPRP	0.133
RRIRKRPPRLPRPRPRPIWFPRP	-0.0276
RRIRKRPPRLPRPRPRPIWTPRP	-0.00674
RRIRKRPPRLPRPRPRPIYGPRP	-0.00172
RRIRKRPPRLPRPRPRPIYHPRP	-0.472
RRIRKRPPRLPRPRPRPKAMPRP	-0.0457
RRIRKRPPRLPRPRPRPKCCPRP	0.0349
RRIRKRPPRLPRPRPRPKCDPRP	0.405
RRIRKRPPRLPRPRPRPKCVPRP	0.52
RRIRKRPPRLPRPRPRPKFSPRP	0.0774
RRIRKRPPRLPRPRPRPKGWPRP	0.61
RRIRKRPPRLPRPRPRPKHQPRP	0.132
RRIRKRPPRLPRPRPRPKHSPRP	-0.147
RRIRKRPPRLPRPRPRPKHWPRP	0.162
RRIRKRPPRLPRPRPRPKIVPRP	0.0401
RRIRKRPPRLPRPRPRPKKRPRP	1.09
RRIRKRPPRLPRPRPRPKMGPRP	0.0837
RRIRKRPPRLPRPRPRPKMKPRP	0.444
RRIRKRPPRLPRPRPRPKNFPRP	-0.148
RRIRKRPPRLPRPRPRPKNRPRP	0.226
RRIRKRPPRLPRPRPRPKPYPRP	0.307
RRIRKRPPRLPRPRPRPKQHPRP	0.657
RRIRKRPPRLPRPRPRPKRLPRP	0.0257
RRIRKRPPRLPRPRPRPKSGPRP	0.0187
RRIRKRPPRLPRPRPRPKTDPRP	0.343

Reference: the supplement of paper PMC9112550, “Optimization of the antimicrobial peptide Bac7 by deep mutational scanning” (BMC Biology, 2022)
